T1: human B7H3 antigen for screening and detection, 2Ig-B7H3 (R&D cat#1949-B3-050/CF) (human, UniProt Q5ZPR3 29-245)
T1 construct: Commercial product; also called human 2Ig-B7H3
T1 sequence: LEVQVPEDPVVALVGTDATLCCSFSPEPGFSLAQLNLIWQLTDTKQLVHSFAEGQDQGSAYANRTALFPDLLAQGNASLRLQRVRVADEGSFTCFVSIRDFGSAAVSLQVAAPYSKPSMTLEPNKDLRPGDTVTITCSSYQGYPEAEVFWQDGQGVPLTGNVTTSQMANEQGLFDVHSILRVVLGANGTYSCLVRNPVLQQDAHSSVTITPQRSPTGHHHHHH

T2: human B7H3 antigen for detection, 4Ig-B7H3 (SinoBiological cat#11188-H08H) (human, UniProt Q5ZPR3 29-461)
T2 construct: Commercial product; also called human 4Ig-B7H3
T2 sequence: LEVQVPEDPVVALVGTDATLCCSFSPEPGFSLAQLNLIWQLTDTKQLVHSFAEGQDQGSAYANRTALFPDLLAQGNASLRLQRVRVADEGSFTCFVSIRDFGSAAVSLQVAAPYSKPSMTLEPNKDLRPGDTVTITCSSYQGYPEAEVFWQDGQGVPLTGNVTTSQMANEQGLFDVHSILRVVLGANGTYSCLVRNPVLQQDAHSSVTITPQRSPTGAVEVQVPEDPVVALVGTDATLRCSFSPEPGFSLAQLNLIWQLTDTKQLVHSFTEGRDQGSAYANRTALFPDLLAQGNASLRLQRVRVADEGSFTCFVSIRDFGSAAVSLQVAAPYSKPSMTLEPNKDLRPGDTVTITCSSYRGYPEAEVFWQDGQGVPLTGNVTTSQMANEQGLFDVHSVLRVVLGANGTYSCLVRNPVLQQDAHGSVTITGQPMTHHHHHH

T3: murine B7H3 antigen for screening and detection (R&D cat#1397-B3-050/CF) (mouse, UniProt Q8VE98 29-244)
T3 construct: Commercial product; also called mouse B7H3
T3 sequence: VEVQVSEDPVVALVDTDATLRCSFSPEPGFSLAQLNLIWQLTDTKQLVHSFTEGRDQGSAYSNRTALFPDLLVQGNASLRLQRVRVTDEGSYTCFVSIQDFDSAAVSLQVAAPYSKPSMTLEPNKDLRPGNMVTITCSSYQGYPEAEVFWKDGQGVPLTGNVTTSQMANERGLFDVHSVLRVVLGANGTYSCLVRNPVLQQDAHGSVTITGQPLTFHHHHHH

B1: h1702 antibody (fully human anti-B7H3 full-length antibody) (antibody, human IgG1, lambda)
heavy: not shown
light: QTVVTQEPSFSVSPGGTVTLTCGLSSGSVSTSHYPSWYQQTPGQAPRMLIYNTNTRSSGVPDRFSGSILGNKAALTITGAQADDESDYYCAIHVDRDIWVFGGGTKLTVLGQPKANPTVTLFPPSSEELQANKATLVCLISDFYPGAVTVAWKADGSPVKAGVETTKPSKQSNNKYAASSYLSLTPEQWKSHRSYSCQVTHEGSTVEKTVAPTECS
notes: IgG1 heavy chain, lambda light chain; naked antibody expressed in HEK293E cells; also called B7H3-h1702
B2: B7H3-h1702-L2-MC-MMAF (antibody-drug conjugate of h1702 with MC-MMAF) (antibody, human IgG1, lambda)
heavy: not shown
light: B1 light
modifications: MC-MMAF coupled through a propylthiol linker (L2) to lysine residues of the antibody; positions not given; average y = 1.76 per antibody
notes: also called h1702-MMAF
B3: B7H3-h1703-L2-MC-MMAF (antibody-drug conjugate of h1703 with MC-MMAF) (antibody, human IgG1, kappa, V domains shown)
VH: QVQLQESGGGLVQPGGSLRLSCAASGFTFSSYAMSWVRQAPGKGLEWVSAISGSGGSTYYADSVKGRYTISRDNSKNTLYLQMNSLRAEDTAVYYCAKGVGPVHALDVWGQGTTVTVSS
VL: DIRLTQSPSSLSASVGDRVTITCRASQSISTYLNWYQQKPGKAPILLINAVSGLQSGVPSRFSGSGSGTHFTLTITSLQPEDFATYYCQQSYSTPMWTFGQGTKVEIKR
modifications: MC-MMAF coupled through a propylthiol linker (L2) to lysine residues of the antibody; positions not given; average y = 2.29 per antibody
notes: also called h1703-MMAF
B4: B7H3-h1702-cys-3024 (antibody-drug conjugate of h1702 with drug-linker 3024 on cysteines) (antibody, human IgG1, lambda)
heavy: not shown
light: B1 light
modifications: drug-linker 3024 on cysteine thiols after TCEP reduction; positions not given; average y = 3.5 per antibody
B5: B7H3-h1702DS-cys-3024 (antibody-drug conjugate of h1702-DS with drug-linker 3024 on cysteines) (antibody, human IgG1, lambda)
heavy: not shown
light: DTVVTQEPSFSVSPGGTVTLTCGLSSGSVSTSHYPSWYQQTPGQAPRMLIYNTNTRSSGVPDRFSGSILGNKAALTITGAQADDESDYYCAIHVDRDIWVFGGGTKLTVLGQPKANPTVTLFPPSSEELQANKATLVCLISDFYPGAVTVAWKADGSPVKAGVETTKPSKQSNNKYAASSYLSLTPEQWKSHRSYSCQVTHEGSTVEKTVAPTEC
modifications: drug-linker 3024 on cysteine thiols after TCEP reduction; positions not given; average y = 3.55 per antibody
B6: B7H3-h1704-3-cys-3024 (antibody-drug conjugate of humanized h1704-3 with drug-linker 3024 on cysteines) (antibody, human IgG1, kappa, V domains shown)
VH: EVQLVESGGGLVKPGGSLRLSCAASGFTFSRYGMSWVRQAPGKGLEWVSAISSGGGSIYYPDTVKGRLTISRDNAKNTLYLQMNSLRAEDTAVYYCTRHYLLFEMDYWGQGTTVTVSS
VL: DIVLTQSPSFLSASVGDRVTITCKASQNVNTAVAWYQQKPGKAPKLLIFSASNRYTGVPSRFSGSGSGTDFTLTISSLQPEDVAAYFCQQYSSSLTFGGGTKLEIKR
modifications: drug-linker 3024 on cysteine thiols after TCEP reduction; positions not given; average y = 3.4 per antibody
notes: Antibody-drug conjugate made from antibody h1704-3 (IgG1, kappa)
B7: h1703 antibody (fully human anti-B7H3 full-length antibody) (antibody, human IgG1, kappa, V domains shown)
VH: B3 VH
VL: B3 VL
notes: IgG1 heavy chain, kappa light chain; naked antibody; also called B7H3-h1703
B8: B7H3-h1702-L2-3024 (antibody-drug conjugate of h1702 with drug-linker 3024) (antibody, human IgG1, lambda)
heavy: not shown
light: B1 light
modifications: drug-linker 3024 coupled through a propylthiol linker (L2) to lysine residues of the antibody; positions not given; average y = 2.05 per antibody
notes: also called h1702-3024
B9: B7H3-h1703-L2-3024 (antibody-drug conjugate of h1703 with drug-linker 3024) (antibody, human IgG1, kappa, V domains shown)
VH: B3 VH
VL: B3 VL
modifications: drug-linker 3024 coupled through a propylthiol linker (L2) to lysine residues of the antibody; positions not given; average y = 1.62 per antibody
notes: also called h1703-3024

Experiments:
[1] = target: T1, human B7H3 antigen for screening and …; test: ELISA, antigen coated at 1 ug/ml, HRP anti-human IgG Fc detection
[2] = target: T2, human B7H3 antigen for detection, …; test: as above
[3] = target: T3, murine B7H3 antigen for screening and …; test: ELISA, mouse B7H3 coated at 1 ug/ml, HRP anti-human IgG Fc detection
[4] = target: T1, human B7H3 antigen for screening and …; test: SPR (Biacore T200), antibody captured on Protein A chip, antigen in flow, 1:1 Langmuir fit
[5] = target: T2, human B7H3 antigen for detection, …; test: as above
[6] = target: T1, human B7H3 antigen for screening and …; test: SPR (Biacore T200), ADC captured on Protein A chip, antigen in flow, 1:1 Langmuir fit (column of the single value inferred)
[7] = target: T2, human B7H3 antigen for detection, …; test: ELISA, antigen coated at 1 ug/ml, HRP anti-human IgG Fc detection (column of the single value not certain)
[8] = target: T2, human B7H3 antigen for detection, …; test: SPR (Biacore T200), ADC captured on Protein A chip, antigen in flow, 1:1 Langmuir fit (column of the single value inferred)
[9] = target: T1, human B7H3 antigen for screening and …; test: SPR (Biacore T200), ADC captured on Protein A chip, antigen in flow, 1:1 Langmuir fit
[10] = target: T2, human B7H3 antigen for detection, …; test: as above

EC50 [1] [nM]	EC50 [2] [nM]	EC50 [3] [nM]	Kd [4] [nM]	Kd [5] [nM]	Kd [6] [nM]	EC50 [7] [nM]	Kd [8] [nM]	Kd [9] [nM]	Kd [10] [nM]	Binder
0.11	0.16	18.1	797	8.55	–	–	–	–	–	B1
0.16	0.18	59	–	–	452	–	–	–	–	B2
2.36	3.08	116	–	–	193	–	–	–	–	B3
–	–	–	–	–	–	0.29	11.2	–	–	B4
–	–	–	–	–	–	0.3	10.6	–	–	B5
–	–	–	–	–	–	0.09	0.778	–	–	B6
10.3	2.1	86.7	448	–	–	–	–	–	–	B7
0.17	0.26	131	–	–	–	–	–	580	10.5	B8
15.1	4.97	115	–	–	–	–	–	219	–	B9

Reference: WO2019024911A1 (dated 2019)
